# Patent US20250011363A1, “OPTIMIZED SHORTENED PEPTIDE THAT BINDS TO ACETYLCHOLINE RECEPTOR, AND USE THEREOF” (SKINMED CO., LTD., priority 2021, published 2025)
# Molecular target: acetylcholine receptor
# Experiment: SPR, AchR immobilized on CM5 chip, peptide at 10 µM
row,Binder,Binding affinity (RU)
1,RWRCK [5mer-400],70
2,RQQYR [5mer-101],55
3,RGVLR [5mer-401],52
4,RGFSK [5mer-102],82
5,RLRYR [5mer-402],86
6,RWFLK [5mer-103],62
7,RRLYK [5mer-403],64
8,RVVLK [5mer-104],74
9,KGYLK [5mer-404],83
10,RGQQR [5mer-105],50
11,KSYTK [5mer-405],68
12,KLLQR [5mer-106],78
13,KVYLR [5mer-406],84
14,RWVSR [5mer-107],56
15,RQIYK [5mer-407],58
16,KWQLK [5mer-108],77
17,KVFRK [5mer-408],74
18,RLQCR [5mer-109],68
19,KQIYK [5mer-409],62

row,Binder,Binding affinity (RU)
1,KRRLK [5mer-110],76
2,RRFLR [5mer-410],76
3,KSVLK [5mer-111],85
4,KGRLR [5mer-411],66
5,KRYYR [5mer-112],58
6,RGRSR [5mer-412],81
7,KRLRK [5mer-113],79
8,RWLTR [5mer-413],56
9,KRQRR [5mer-114],82
10,KVRCK [5mer-414],71
11,RWLLR [5mer-115],75
12,KVFLR [5mer-415],77
13,RWRSK [5mer-116],64
14,KLYLR [5mer-416],67
15,RSVYK [5mer-117],69
16,KWLQK [5mer-417],65
17,RVICK [5mer-118],87
18,RWRTR [5mer-418],53
19,KQIRK [5mer-119],60

row,Binder,Binding affinity (RU)
1,RVYTR [5mer-419],67
2,RQILK [5mer-120],68
3,KLFCR [5mer-420],84
4,RQVTR [5mer-121],73
5,RVVYK [5mer-421],68
6,RSYQK [5mer-122],78
7,KWICK [5mer-422],87
8,KWIRR [5mer-123],53
9,RRQLK [5mer-423],60
10,KGFSK [5mer-124],58
11,RVYLK [5mer-424],87
12,RVRQK [5mer-125],67
13,RGFYR [5mer-425],80
14,RGVTK [5mer-126],61
15,RRVSR [5mer-426],57
16,RWVTK [5mer-127],86
17,RGLYR [5mer-427],87
18,RGVCR [5mer-128],56
19,RQFLK [5mer-428],86
